Assay results taken from publication PMC3974781.

Target: HA-ASIC2a (mouse acid-sensing ion channel 2a, HA epitope-tagged) (mouse) (UniProt Q925H0)
UniProt Q925H0, sequence (Q925H0 whole entry): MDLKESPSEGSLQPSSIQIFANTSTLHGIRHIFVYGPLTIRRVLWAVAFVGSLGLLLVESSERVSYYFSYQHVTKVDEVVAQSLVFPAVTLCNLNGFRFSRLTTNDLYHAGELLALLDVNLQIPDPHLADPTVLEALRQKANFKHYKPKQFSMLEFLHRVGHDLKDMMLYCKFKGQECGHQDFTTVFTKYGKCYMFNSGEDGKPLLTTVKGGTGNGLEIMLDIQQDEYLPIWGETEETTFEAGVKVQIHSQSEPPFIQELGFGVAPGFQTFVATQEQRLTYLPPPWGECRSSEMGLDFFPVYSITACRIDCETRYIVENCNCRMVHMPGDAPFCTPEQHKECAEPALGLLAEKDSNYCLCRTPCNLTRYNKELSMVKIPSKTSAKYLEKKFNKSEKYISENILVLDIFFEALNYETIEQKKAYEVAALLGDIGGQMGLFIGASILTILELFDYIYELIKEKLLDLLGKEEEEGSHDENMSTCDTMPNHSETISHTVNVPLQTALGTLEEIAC

B1: ASIC1a (mouse acid-sensing ion channel 1a) (natural protein)
chain: MELKTEEEEVGGVQPVSIQAFASSSTLHGLAHIFSYERLSLKRALWALCFLGSLAVLLCVCTERVQYYFCYHHVTKLDEVAASQLTFPAVTLCNLNEFRFSQVSKNDLYHAGELLALLNNRYEIPDTQMADEKQLEILQDKANFRSFKPKPFNMREFYDRAGHDIRDMLLSCHFRGEACSAEDFKVVFTRYGKCYTFNSGQDGRPRLKTMKGGTGNGLEIMLDIQQDEYLPVWGETDETSFEAGIKVQIHSQDEPPFIDQLGFGVAPGFQTFVSCQEQRLIYLPSPWGTCNAVTMDSDFFDSYSITACRIDCETRYLVENCNCRMVHMPGDAPYCTPEQYKECADPALDFLVEKDQEYCVCEMPCNLTRYGKELSMVKIPSKASAKYLAKKFNKSEQYIGENILVLDIFFEVLNYETIEQKKAYEIAGLLGDIGGQMGLFIGASILTVLELFDYAYEVIKHRLCRRGKCQKEAKRNSADKGVALSLDDVKRHNPCESLRGHPAGMTYAANILPHHPARGTFEDFTC
- pH50 of activation of acid-evoked currents in CHO cells coexpressing ASIC1a and ASIC2a (whole-cell patch clamp); ASIC1a alone pH50 = 6.7, ASIC2a alone pH50 = 4.0: 5.4 pH
